Measured values as given in patent publication US10245299B2, “Autoassembling peptides for the treatment of pulmonary bulla” (3-D MATRIX, LTD., priority 2014, dated 2019).
Where no end group is shown, it is not given here.

Legend:
[1] = Rheological properties at adjusted salt ionic strength; assay type: physicochemical; details: for ionic strength adjustment up to which the rheological property of the solution increases (decreases above): 1% solutions, storage modulus at 1 rad/sec
Protocol: Based on the visual observation of the effect of salt ionic strength on the properties of the peptide solutions, the effect on the rheological properties of the peptide solutions after adjusting their ionic strength level with NaCl to 0.7 M (PuraMatrix®), 0.2 M (KLD12) or 0.02 M (IEIK13), which is closely below the critical ionic strength at which each peptide becomes cloudy, was evaluated. If the ionic strength levels with NaCl of peptide solutions are higher than 0.9 M (PuraMatrix®), 0.3 M (KLD12) or 0.03 M (IEIK13), the peptide solution begin phase separation becoming cloudy and weak. The rheological property of PuraMatrix®, KLD12 and IEIK13 solutions was higher after adjusting their ionic strength level with NaCl to 0.7 M (PuraMatrix®), 0.2 M (KLD12) or 0.02 M (IEIK13), The results are shown in FIG. 10 for KLD12 1%, FIG. 11 for IEIK13 1%, and FIG. 12 for PuraMatrix® 1%, respectively. Frequency sweep tests were performed from 1 rad/s to 10 rad/s at 1 Pa.
Based on the results of the effect on the rheological properties of the peptide solutions after adjusting their ionic strength level with NaCl to 0.7 M (PuraMatrix®), 0.2 M (KLD12) or 0.02 M (IEIK13), the effect on the rheological properties of the peptide solution at various salt ionic strengths was evaluated. […] The results are shown in FIG. 13 for PuraMatrix® 1% solution and in FIG. 14 for IEIK13 1% solution. Frequency sweep tests were performed from 1 rad/sec to 10 rad/sec at 1 Pa and the storage modulus at 1 rad/sec was selected for data.
Based on the results of the effect on the rheological properties of the peptide solutions after adjusting their ionic strength levels, the effect on the rheological properties of the peptide hydrogels after DMEM treatment for 10 min was evaluated. […] The results are shown in FIG. 15 for PuraMatrix® 1% hydrogels and in FIG. 16 for IEIK13 1% hydrogels, both after DMEM treatment for 10 min. Frequency sweep tests were performed from 1 rad/sec to 10 rad/sec at 1 Pa and the storage modulus at 1 rad/sec was selected for data.
Based on the results of the effect on the rheological properties of the peptide solutions and hydrogels after adjusting their ionic strength levels with NaCl, the effect of various salts (KCl, MgCl2, and CaCl2) was also evaluated. The rheological property of PuraMatrix® solutions increases with ionic strength adjustment at 0.15 M of all the salts. Increases of the rheological property of PuraMatrix® solutions with various salts were not predominantly different. However, increases of the rheological property of PuraMatrix® solutions may vary depending on the salting out constant, K of each salt. Constant K is a constant in Cohen's equation: log S=B−KI, where S is solubility, B is idealized solubility, K is salting out constant, and I is ionic strength. With a higher value of constant K and ionic strength of salts, solubility of the peptide may decrease resulting in strong peptide self-assembly with increased hydrophobic effect and higher rheological properties of the peptide solution. The constant K of NaCl may be higher than the other salts. […] The results are shown in FIG. 17 for PuraMatrix® 1% solution before DMEM treatment, and in FIG. 18 for PuraMatrix® 1% hydrogels after DMEM treatment for 10 min.
In accordance with one or more embodiments, IEIK13, KLD12, and PuraMatrix® may be dissolved both in salt buffer such as NaCl and at an elevated pH level adjusted with alkali salt buffer such as NaOH to keep their salt ionic strength under their critical salt points as well as their pH level to about 2.5˜4.0, so that they may have stiffer properties. With respect to PuraMatrix®, […] and IEIK13, the peptide solutions are still clear with 0.9% NaCl (ionic strength: 0.15 M) at pH 3.4 adjusted with NaOH. […] The effect of salt ionic strength and pH adjustment on the rheological properties of PuraMatrix® 2.5% solution are shown in FIG. 20. […]

[2] = Rheological properties of pH adjusted peptide solutions and hydrogels; assay type: physicochemical; details: KLD12 1%, IEIK13 1%, PuraMatrix® 1% and 2.5%
Protocol: Based on the visual observation of the effect of pH level on the properties of the peptide solutions, the effect on the rheological properties of the peptide solutions after adjusting their pH level to 3.4 (PuraMatrix® and KLD12) or 3.7 (IEIK13) was evaluated. If the pH levels of peptide solutions are higher than 3.5 (PuraMatrix® and KLD12) or 3.7 (IEIK13), the peptide solution began phase separation becoming cloudy. The rheological properties of PuraMatrix®, KLD12 and IEIK13 solutions were higher at pH 3.4. The results are shown in FIG. 2 for KLD12 1%, FIG. 3 for IEIK13 1%, and FIGS. 4-5 for PuraMatrix® 1% and 2.5%, respectively. Stress sweep tests were performed at 10 rad/s. Frequency sweep tests were performed at 1 Pa.
Based on the results of the effect on the rheological properties of the peptide solutions after adjusting their pH level to 3.4 (PuraMatrix® and KLD12) or 3.7 (IEIK13), the effect on the rheological properties of the peptide solutions at various pH levels was evaluated. […] The rheological properties of peptides were evaluated at various concentrations using a rheometer (DHR-1, TA Instruments) with 20 mm plates. The results are shown in FIG. 6A for PuraMatrix® 2.5% solution and FIG. 6B for IEIK13 1.5% solution, respectively. Frequency sweep tests were performed from 1 rad/sec to 10 rad/sec at 1 Pa and the storage modulus at 1 rad/sec was selected for data.
Based on the results of the effect on the rheological properties of the peptide solutions after adjusting their pH level, the effect on the rheological properties of the peptide hydrogels at various pH after DMEM treatment was evaluated and compared to the effect on the rheological properties of the peptide solutions at various pH before DMEM treatment. […] The results are shown in FIGS. 7A-7B for PuraMatrix® and FIGS. 8A-8B for IEIK (SEQ ID NO: 5), respectively. Frequency sweep tests were performed from 1 rad/sec to 10 rad/sec at 1 Pa and the storage modulus at 1 rad/sec was selected for data.

[3] = 1% hydrogels after DMEM treatment for 10 min

Arg-Ala-Asp-Ala-Arg-Ala-Asp-Ala-Arg-Ala-Asp-Ala-Arg-Ala-Asp-Ala [PuraMatrix®]
ionic strength adjustment up to which the rheological property of hydrogels increased (decreases above) [1, 3]: up to 0.7 M | rheological property of hydrogels with ionic strength adjustment with various salts ([1]; 1% hydrogels after DMEM treatment for 10 min, 0.15 M ionic strength): comparable to increases of the rheological property of PuraMatrix® solutions with various salts | rheological property of solutions with NaCl compared with other salts ([1]; 1% solution, 0.15 M ionic strength): slightly higher than those with KCl and CaCl2 | rheological property of solutions with ionic strength adjustment ([1]; 1% solution, 0.15 M ionic strength of all the salts (NaCl, KCl, MgCl2, CaCl2)): increases | ionic strength adjustment up to which the rheological property of the solution increases (decreases above) [1]: up to 0.7 M | rheological property ([1]; 2.5% solution with 0.9% NaCl (ionic strength: 0.15 M) at pH 3.4): stiffer than those of PuraMatrix control and PuraMatrix with only NaCl 0.9% | ionic strength level with NaCl above which the solution begins phase separation becoming cloudy and weak [1]: higher than 0.9 M | rheological properties of solutions at pH 3.4 [2]: higher

Ile-Glu-Ile-Lys-Ile-Glu-Ile-Lys-Ile-Glu-Ile-Lys-Ile [IEIK13]
rheological property of hydrogels with ionic strength adjustment [1, 3]: did not significantly change with ionic strength adjustment up to 0.025 M, while decreases above 0.03 M | ionic strength adjustment up to which the rheological property of the solution increases (decreases above) [1]: up to 0.03 M | ionic strength level with NaCl above which the solution begins phase separation becoming cloudy and weak [1]: > 0.03 M | rheological properties of solutions at pH 3.4 [2]: higher

KLDLKLDLKLDL [KLD12]
ionic strength level with NaCl above which the solution begins phase separation becoming cloudy and weak [1]: > 0.3 M | rheological properties of solutions at pH 3.4 [2]: higher
